As a reminder, the Kd is the concentration at which binding is half-saturated.

The results in this text go back to article PMC2397485 (2008).

What all share (assay): high-speed co-sedimentation
In test [1] the target is F-actin (skeletal muscle) (Oryctolagus cuniculus, UniProt P68135).
For test [2], the target named is F-actin (Saccharomyces cerevisiae, UniProt P60010).
For test [3], the target named is F-actin (act1-102) (Saccharomyces cerevisiae, UniProt P60010).

B1: Scp1(1-180) 1-180 (protein)
chain: MSYDKKADVTSLDEDLRQLRESKFSPEAIQNIKIWVYKSVLKEIAPPGDLLECLKDGTVLCKLANILYEADTGEANHISWKSSKMPFVQMDQISQFLSFSRKYGVPEDELFQTIDLFEKKDPAIVFQTLKSLSRYANKKHTDRFPVLGPQLSTKKPRPPVKSKPKHLQDGTGWSTFEYGY
The molecule B1 yielded an equilibrium dissociation constant (Kd) in test [1] of 7.1 µM.

B2: Scp1 (protein)
chain: SYDKKADVTSLDEDLRQLRESKFSPEAIQNIKIWVYKSVLKEIAPPGDLLECLKDGTVLCKLANILYEADTGEANHISWKSSKMPFVQMDQISQFLSFSRKYGVPEDELFQTIDLFEKKDPAIVFQTLKSLSRYANKKHTDRFPVLGPQLSTKKPRPPVKSKPKHLQDGTGWSTFEYGYMKGASQATEGVVLGQRRDIV
In the case of B2, the results for the Kd in test [1], in test [2] and in test [3] were 2.1 µM, 1.3 µM and 7.9 µM, respectively.
